Reference: the supplement of paper PMC7877785
± gives the uncertainty stated by the source.

Assay: self-splicing fitness, log relative to wild type (ln ratio); higher = more splicing; Tetrahymena group I intron in knt gene, E. coli kanamycin selection, DiMSum; sequences stand for … in CUCUCU…GGAGGGAAAAGUUAUCAGGCAUGCACCUGGUAGCUAGUCUUUAAACCAAUAGAUUGCAUCGGUUUAAAAGGCAAGACCGUCAAAUUGCGGGAAAGGGGUCAACAGCCGUUCAGUACCAAGUCUCAGGGGAAACUUUGAGAUGGCCUUGCAAAGGGUAUGGUAAUAAGCUGACGGACAUGGUCCUAACCACGCAGCCAAGUCCUAAGUCAACAGAUCUUCUGUUGAUAUGGAUGCAGUUCACAGACUAAAUGUCGGUCGGGGAAGAUGUAUUCUUCUCAUAAGAUAUAGUCGGACCUCUCCUUAAUGGGAGCUAGCGGAUGAAGUGAUGCAACACUGGAGCCGCUGGGAACUAAUUUGUAUGCGAAAGUAUAUUGAUUAGUUUUGGAGUACUCGUGGUCG
Method in brief: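 A randomised library covering all eight P1ex-region intron nucleotides was built with the intron in the knt kanamycin-resistance gene on pET-22b(+) and held in E. coli BL21(DE3). Cells were grown overnight at 37°C or 30°C on LB agar, with or without 25 μg/mL kanamycin, plus 100 μg/mL carbenicillin, 50 μM IPTG and 0.2% rhamnose, and pooled colonies were amplicon-sequenced on an Illumina HiSeq 2500. DiMSum fitness is the error-weighted combination of wild-type-normalised replicate fold changes, kanamycin versus none.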

Sequence | self-splicing fitness (ln) (30 °C) | self-splicing fitness (ln) (37 °C)
GAUAAGCAAUAUUACGGUGG | -2.85 ± 0.23 | -2.24 ± 0.2
UUAGAGCAAUAUUACGGCGA | 0.109 ± 0.063 | -0.0898 ± 0.074
CGUCAGCAAUAUUACGCGCA | -1.1 ± 0.14 | -0.181 ± 0.13
CCCGAGCAAUAUUACGCCUC |  | -1.77 ± 0.34
UAGGAGCAAUAUUACGCCAA | -3.23 ± 0.4 | -2.13 ± 0.42
GCGAAGCAAUAUUACGGCAC | 0.112 ± 0.13 | 0.387 ± 0.17
CACGAGCAAUAUUACGGGAA | -2.95 ± 0.2 | -3.1 ± 0.29
CGGUAGCAAUAUUACGCGAU | -2.23 ± 0.35 | -2.41 ± 0.44
GGUCAGCAAUAUUACGGGCG | -0.483 ± 0.088 | 0.32 ± 0.12
UGGUAGCAAUAUUACGCGCG | 0.0906 ± 0.2 | -0.0153 ± 0.25
CUUUAGCAAUAUUACGCGGC | -2.41 ± 0.35 | -0.897 ± 0.17
CGAUAGCAAUAUUACGGGUU | -3.84 ± 0.21 | -3.04 ± 0.24
GAAUAGCAAUAUUACGGUGU | -3 ± 0.13 | -1.58 ± 0.14
UAGCAGCAAUAUUACGCUCU | -1.27 ± 0.087 | -1.04 ± 0.088
CGGCAGCAAUAUUACGUGCU | -3 ± 0.14 | -1.63 ± 0.16
CGACAGCAAUAUUACGCCCG | 0.138 ± 0.24 | 
GCUGAGCAAUAUUACGUAAC | -2.3 ± 0.24 | -1.6 ± 0.36
ACACAGCAAUAUUACGGCAG | -1.29 ± 0.067 | -0.371 ± 0.082
AGCAAGCAAUAUUACGCCAU | -3.14 ± 0.18 | -1.63 ± 0.13
AUCUAGCAAUAUUACGGAUA | -3 ± 0.46 | -2.05 ± 0.26
CUCAAGCAAUAUUACGGGAU | -3.47 ± 0.12 | -1.34 ± 0.099
UAAAAGCAAUAUUACGAUGG | -0.953 ± 0.087 | -0.592 ± 0.11
CUAAAGCAAUAUUACGAAGU | -4.21 ± 0.26 | -2.57 ± 0.28
UAUUAGCAAUAUUACGUUUU |  | -0.0777 ± 0.32
AGUGAGCAAUAUUACGGACA | -1.09 ± 0.2 | -1.5 ± 0.27

Sequence | self-splicing fitness (ln) (30 °C) | self-splicing fitness (ln) (37 °C)
GGUGAGCAAUAUUACGUCCC | -2.23 ± 0.39 | 
UUCCAGCAAUAUUACGUUCU |  | -3.34 ± 0.31
CGUAAGCAAUAUUACGAGAG | -3.56 ± 0.22 | -3.14 ± 0.28
ACUUAGCAAUAUUACGGUCA | -1.88 ± 0.15 | -0.773 ± 0.15
CGUCAGCAAUAUUACGCCAG | -0.944 ± 0.15 | -0.48 ± 0.23
GGAUAGCAAUAUUACGAUUC | -2.52 ± 0.15 | -0.731 ± 0.16
GUGAAGCAAUAUUACGCUUU | -4.83 ± 0.36 | -2.84 ± 0.43
CGGCAGCAAUAUUACGGCAG | -0.677 ± 0.095 | -0.796 ± 0.11
AGCAAGCAAUAUUACGAAGU | -3.42 ± 0.27 | -1.58 ± 0.25
CCUCAGCAAUAUUACGAUAC | -3.21 ± 0.26 | -3.08 ± 0.47
CAAAAGCAAUAUUACGCCUG | -1.07 ± 0.13 | -0.273 ± 0.13
CCAUAGCAAUAUUACGCACC | -1 ± 0.34 | 
AGCUAGCAAUAUUACGGAAU | -1.13 ± 0.16 | -2.07 ± 0.27
CACAAGCAAUAUUACGAGCA | -2.96 ± 0.2 | -2.28 ± 0.17
UUUCAGCAAUAUUACGCCUC |  | -1.38 ± 0.41
CGCGAGCAAUAUUACGCAGG | -2.68 ± 0.13 | -1.88 ± 0.15
UUGCAGCAAUAUUACGGGAC | -3.01 ± 0.25 | -2.37 ± 0.39
CUUCAGCAAUAUUACGAUGC | -2.93 ± 0.21 | -2.23 ± 0.23
CGACAGCAAUAUUACGUGGA | -3.38 ± 0.17 | -3.17 ± 0.18
AUCGAGCAAUAUUACGUCAC |  | -1.29 ± 0.45
UUUCAGCAAUAUUACGAAAU |  | -2.26 ± 0.4
GCCUAGCAAUAUUACGUGUA | -1.55 ± 0.086 | -0.545 ± 0.088
AGAUAGCAAUAUUACGUCGG | -1.52 ± 0.14 | -1.26 ± 0.16
AACAAGCAAUAUUACGGCGU | -0.173 ± 0.063 | 0.163 ± 0.071
GCAGAGCAAUAUUACGUAUC | -2.59 ± 0.33 | -2.08 ± 0.41
